The values below come from patent US20050142135A1 (UNIVERSITY OF KENTUCKY RESEARCH FOUNDATION, published 2005).

Assay [1] concerns the target T1, human FSH (human, UniProt P01215 25-116; P01225 19-129).
T1 construct: heterodimer, purchased from the National Hormone and Pituitary Program; also called follicle stimulating hormone
Description: 125I-FSH competition binding on HEK293 cells, Scatchard. How it is done:
The Kd values were determined by Scatchard plots. Truncated exodomain was solubilized in Nonidet P-40 and assayed for hormone binding as described previously. For intracellular cAMP assay, cells were washed twice with Dulbecco's modified Eagle's media and incubated in the media containing isobutylmethylxanthine (0.1 mg/ml) for 15 minutes. […] After removing the media, the cells were rinsed once with fresh media without isobutylmethylxanthine, lysed in 70% ethanol, freeze-thawed in liquid nitrogen, and scraped. After pelleting cell debris at 16,000×g for 10 minutes at 4° C., the supernatant was collected, dried under vacuum and resuspended in 10 μl of the cAMP assay buffer, which was provided by the manufacturer. cAMP concentrations were determined with an ¹²⁵I-cAMP assay kit (Amersham) following the manufacturer's instruction and validated for use in our laboratory. Exoloop 3 of FSHR was modeled based on the crystal structure of rhodopsin as a template.

Assay [2] addresses T2, human LH receptor, wild type (human, UniProt P22888 27-699).
T2 construct: whole, on cells; stably expressed in HEK 293 cells; This holds for all LHR mutants and LHR peptides below; also called LH/CG receptor
Description: competition of 125I-hCG binding to cells expressing LHR. How it is done: The Kd values were determined by Scatchard plots. For intracellular cAMP assay, cells were washed twice with Dulbecco's modified Eagle's media and incubated in the media containing isobutylmethylxanthine (0.1 mg/ml) for 15 minutes. Increasing concentrations of hormone were then added and the incubation was continued for 45 minutes at 37° C. After removing the media, the cells were rinsed once with fresh media without isobutylmethylxanthine, lysed in 70% ethanol, freeze-thawed in liquid nitrogen, and scraped.

Usually Kd stands for a measure of binding affinity in units of concentration. A high value points to weaker binding.

Numbering of substitutions follows the chain as printed. Numbers in names are those of the source. Where only a bound is given, the exact number is not on record here.

T2 sequence (P22888 27-699): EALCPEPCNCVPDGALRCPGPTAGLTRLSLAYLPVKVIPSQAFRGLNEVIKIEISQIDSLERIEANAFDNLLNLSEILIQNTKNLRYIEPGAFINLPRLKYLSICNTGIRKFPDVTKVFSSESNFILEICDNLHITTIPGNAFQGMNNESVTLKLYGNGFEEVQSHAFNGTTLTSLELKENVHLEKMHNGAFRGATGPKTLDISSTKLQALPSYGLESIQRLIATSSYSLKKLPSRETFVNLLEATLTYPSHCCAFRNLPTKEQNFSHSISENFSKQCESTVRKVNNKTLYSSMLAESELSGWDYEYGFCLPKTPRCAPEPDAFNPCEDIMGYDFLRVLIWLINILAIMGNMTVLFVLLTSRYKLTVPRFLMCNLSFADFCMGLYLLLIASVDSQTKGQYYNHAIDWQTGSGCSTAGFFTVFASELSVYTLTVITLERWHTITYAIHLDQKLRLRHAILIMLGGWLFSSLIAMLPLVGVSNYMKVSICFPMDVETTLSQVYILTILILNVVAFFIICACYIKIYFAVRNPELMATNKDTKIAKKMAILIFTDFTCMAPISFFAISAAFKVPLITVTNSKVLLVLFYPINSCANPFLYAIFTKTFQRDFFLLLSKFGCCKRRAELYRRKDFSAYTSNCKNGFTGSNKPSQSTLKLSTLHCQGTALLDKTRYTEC

B1: FSHR^K590F (receptor)
chain: CHHRICHCSNRVFLCQESKVTEIPSDLPRNAIELRFVLTKLRVIQKGAFSGFGDLEKIEISQNDVLEVIEADVFSNLPKLHEIRIEKANNLLYINPEAFQNLPNLQYLLISNTGIKHLPDVHKIHSLQKVLLDIQDNINIHTIERNSFVGLSFESVILWLNKNGIQEIHNCAFNGTQLDELNLSDNNNLEELPNDVFHGASGPVILDISRTRIHSLPSYGLENLKKLRARSTYNLKKLPTLEKLVALMEASLTYPSHCCAFANWRRQISELHPICNKSILRQEVDYMTQARGQRSSLAEDNESSYSRGFDMTYTEFDYDLCNEVVDVTCSPKPDAFNPCEDIMGYNILRVLIWFISILAITGNIIVLVILTTSQYKLTVPRFLMCNLAFADLCIGIYLLLIASVDIHTKSQYHNYAIDWQTGAGCDAAGFFTVFASELSVYTLTAITLERWHTITHAMQLDCKVQLRHAASVMVMGWIFAFAAALFPIFGISSYMKVSICLPMDIDSPLSQLYVMSLLVLNVLAFVVICGCYIHIYLTVRNPNIVSSSSDTRIAKRMAMLIFTDFLCMAPISFFAISASLKVPLITVSKAFILLVLFHPINSCANPFLYAIFTKNFRRDFFILLSKCGCYEMQAQIYRTETSSTVHNTHPRNGHCSSAPRVTSGSTYILVPLSHLAQN
Turning to B1, the Kd in assay [1] was 50 nM.

B2: FSHR^K590L (receptor)
chain: B1 chain with F591L
In the case of B2, binding in assay [1] was put at a Kd of 7.2 nM.

B3: hCG (ligand)
chain 1: not shown
chain 2: SKEPLRPRCRPINATLAVEKEGCPVCITVNTTICAGYCPTMTRVLQGVLPALPQVVCNYRDVRFESIRLPGCPRGVNPVVSYAVALSCQCALCRRSTTDCGGPKDHPLTCDDPRFQDSSSSKAPPPSLPSPSRLPGPSDTPILPQ
notes: purchased from the National Hormone and Pituitary Program; also called human chorionic gonadotropin
As to B3, in assay [2], the “potency relative to LHR^exo3 in inhibiting ^125I-hCG binding to LHR” value is more than 10000 fold.
